Legend:
[1] = target: insulin substrate
[2] = target: native dsbA (with leader)-biotinylation peptide (pDM25453) (E. coli) (UniProt P0AEG4)
[3] = target: 125I-radiolabeled IGF-I; assay: dot blot of serial dilutions of crude soluble fractions probed with 125I-IGF-I; tells of the amount of active protein, not of affinity

Oxidoreductase Activity of DsbA, Activity (U/min-mg), TEX fraction [1]	Substance	further results
0.089 U/min-mg	E. coli DsbA expressed with its leader sequence (pYZ9205) (from UniProt P0AEG4) (enzyme)	
	E. coli biotin holoenzyme synthetase (from UniProt P06709)	efficiency of in vivo biotinylation of the Ni-NTA purified proteins of pDM25450 and pDM25453 [2]: < 10 fold
	DsbA-ubiquitin-IGFBP-3 fusion (pDM15427) (from UniProt P0AEG4)	fold increase in the recovery of bioactive IGFBP-3 (IGF-I binding activity of the crude extract, against the ubiquitin-IGFBP-3 fusion) [3]: 16 fold
0.1 U/min-mg	leaderless E. coli DsbA (pYZ9206) (from UniProt P0AEG4) (enzyme)	

From patent US5914254
